Values quoted from earlier work as cited in paper PMC9179313.
“And” between values parts separate entries of the source, which are not always exact repeats. Identical values can stand only once.

Molecular target: ICAM1 (Homo sapiens) (UniProt P05362)
Sequence (P05362 28-480): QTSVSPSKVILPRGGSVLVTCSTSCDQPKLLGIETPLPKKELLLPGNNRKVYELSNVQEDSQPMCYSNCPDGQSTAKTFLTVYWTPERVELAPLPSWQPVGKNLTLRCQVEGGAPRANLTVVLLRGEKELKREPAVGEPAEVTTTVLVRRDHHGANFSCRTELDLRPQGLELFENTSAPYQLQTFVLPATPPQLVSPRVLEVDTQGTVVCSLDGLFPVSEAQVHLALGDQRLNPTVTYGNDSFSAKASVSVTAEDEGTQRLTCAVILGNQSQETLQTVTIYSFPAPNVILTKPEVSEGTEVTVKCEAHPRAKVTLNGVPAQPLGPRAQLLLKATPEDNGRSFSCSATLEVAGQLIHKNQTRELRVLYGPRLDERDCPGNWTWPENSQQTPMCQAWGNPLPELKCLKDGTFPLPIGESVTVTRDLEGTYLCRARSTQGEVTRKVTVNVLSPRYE

Sequence of LFA1 (integrin alpha-L beta-2) (P20701 26-1090): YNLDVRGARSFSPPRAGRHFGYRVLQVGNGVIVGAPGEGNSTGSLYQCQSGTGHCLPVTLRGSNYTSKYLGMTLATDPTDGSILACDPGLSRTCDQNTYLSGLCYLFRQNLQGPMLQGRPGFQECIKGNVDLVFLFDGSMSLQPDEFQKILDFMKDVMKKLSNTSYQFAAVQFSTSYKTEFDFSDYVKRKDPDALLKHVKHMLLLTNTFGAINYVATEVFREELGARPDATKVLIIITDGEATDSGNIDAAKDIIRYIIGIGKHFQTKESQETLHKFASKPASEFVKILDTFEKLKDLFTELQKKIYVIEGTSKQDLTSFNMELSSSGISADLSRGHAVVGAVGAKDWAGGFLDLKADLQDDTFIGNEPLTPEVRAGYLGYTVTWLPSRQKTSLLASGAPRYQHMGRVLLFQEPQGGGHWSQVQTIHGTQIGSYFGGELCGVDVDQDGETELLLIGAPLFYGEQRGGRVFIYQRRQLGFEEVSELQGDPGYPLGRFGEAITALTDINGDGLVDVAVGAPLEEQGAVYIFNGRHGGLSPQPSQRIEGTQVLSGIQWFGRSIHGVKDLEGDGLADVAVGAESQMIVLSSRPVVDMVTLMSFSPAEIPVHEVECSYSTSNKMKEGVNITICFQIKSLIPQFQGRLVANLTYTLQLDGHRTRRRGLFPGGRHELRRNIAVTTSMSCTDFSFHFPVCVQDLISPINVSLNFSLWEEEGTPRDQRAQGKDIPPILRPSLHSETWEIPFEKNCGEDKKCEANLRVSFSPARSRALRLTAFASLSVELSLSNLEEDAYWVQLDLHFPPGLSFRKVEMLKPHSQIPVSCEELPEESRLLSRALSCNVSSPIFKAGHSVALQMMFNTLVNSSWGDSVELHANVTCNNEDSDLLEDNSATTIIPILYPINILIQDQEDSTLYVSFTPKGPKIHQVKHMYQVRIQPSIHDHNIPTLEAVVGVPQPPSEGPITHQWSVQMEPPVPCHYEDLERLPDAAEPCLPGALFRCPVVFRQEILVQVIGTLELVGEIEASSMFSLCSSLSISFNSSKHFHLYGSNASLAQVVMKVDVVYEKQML
Sequence of LFA1 (integrin alpha-L beta-2) (P05107 23-700, further chain): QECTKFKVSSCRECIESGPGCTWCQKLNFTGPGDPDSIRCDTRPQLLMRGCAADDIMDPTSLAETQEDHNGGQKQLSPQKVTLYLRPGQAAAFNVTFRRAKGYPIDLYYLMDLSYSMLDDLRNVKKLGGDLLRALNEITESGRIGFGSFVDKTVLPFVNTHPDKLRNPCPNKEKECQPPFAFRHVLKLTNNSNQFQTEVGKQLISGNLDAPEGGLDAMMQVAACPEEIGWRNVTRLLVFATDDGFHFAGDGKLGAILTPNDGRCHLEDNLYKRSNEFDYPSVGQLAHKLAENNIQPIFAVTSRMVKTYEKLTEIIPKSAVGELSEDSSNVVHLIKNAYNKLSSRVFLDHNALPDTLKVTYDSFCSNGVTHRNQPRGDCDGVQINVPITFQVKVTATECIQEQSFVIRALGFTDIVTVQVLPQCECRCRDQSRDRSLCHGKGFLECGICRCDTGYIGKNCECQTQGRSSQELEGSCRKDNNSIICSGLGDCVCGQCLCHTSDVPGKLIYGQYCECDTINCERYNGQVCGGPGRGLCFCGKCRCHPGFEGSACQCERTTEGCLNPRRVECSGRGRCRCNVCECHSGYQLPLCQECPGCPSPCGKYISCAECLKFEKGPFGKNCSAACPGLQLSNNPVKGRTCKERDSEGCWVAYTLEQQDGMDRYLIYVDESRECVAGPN

- Kd: 26 µM and 36 µM
Substance: LFA1 (integrin alpha-L beta-2) (from UniProt P20701)
